Test [1] addresses L19-TNF^I97A (human). The test can be described thus: SEC; Superdex 200 Increase 10/300 column, ÄKTA FPLC, protein dialysed into PBS pH 7.4; peak at 12 mL corresponds to the homotrimer. A general note: SEC sorts molecules by how far they enter the pores of the column.
The target of test [2] is alternatively spliced EDB domain of fibronectin (recombinant EDB protein).
In test [3] the target is tumor necrosis factor receptor 1 (TNFR-1) (UniProt P19438). Kind of test: SPR. The conditions noted are these: response read at end of injection (~50-55 s), L19-TNF mutein captured on EDB-coated CM5 chip, read off a plot.
The target in another test is L19-TNF^Q102N (human). The test can be described thus: SEC; Superdex 200 Increase 10/300 column, ÄKTA FPLC, protein dialysed into PBS pH 7.4; peak at 12 mL corresponds to the homotrimer.
Test [4] concerns the target L19-TNF^WT (human). The description is as above.
A further test addresses L19-TNF^S147A (human). The test is described as above.
Test [5] concerns the target L19-TNF^WT (human). Kind of test: SPR; BIAcore X100; EDB covalently immobilised on a CM5 chip (1500-2000 RU), L19-TNF protein captured on it through L19-EDB (340 RU); TNFR1 injected for 30 s in a 1:2 dilution series from 1000 nM; PBS pH 7.4; regeneration 10 mM HCl; independent chip for each protein; global fit, 1:1 Langmuir model. A general note: Surface plasmon resonance follows binding to a sensor surface in real time, without labels.

Test [6] addresses L19-TNF^I97A (human). Described as above.
In the next test the target is L19-TNF^Y119S (human). The test can be described thus: SEC; Superdex 200 Increase 10/300 column, ÄKTA FPLC, protein dialysed into PBS pH 7.4; peak at 12 mL corresponds to the homotrimer.
The target in the next test is L19-TNF^Y59F (human). The test is described as above.

The substance L19-TNF^I97A came in with a stoichiometry N with L19-TNF^I97A (human) [1] of 3. The EC50 of cytotoxicity on A-375 cells (cell viability, with actinomycin D), 100 nM EDB Coating (M); without EDB coating 2.273 × 10^−9 M in [2] came to 2.25e-10 M. As for L19-TNF^WT Q102N, the results for the response in [3] (125 nM TNFR1), in test [3] (500 nM TNFR1) and in test [3] (1000 nM TNFR1) were 28 RU, 45 RU and 45 RU, respectively. For the substance L19-TNF^Q102N, in the test with L19-TNF^Q102N (human), the stoichiometry N was 3.

For the substance L19-TNF^WT, the stoichiometry N with L19-TNF^WT (human) [4] was determined as 3. L19-TNF^S147A: in the test with L19-TNF^S147A (human), the stoichiometry N amounted to 3.

Turning to “tumor necrosis factor receptor 1 (TNFR-1) (from UniProt P19438 30-455)”, the Kd with L19-TNF^WT (human) [5] was 10 nM. This substance showed a fold faster dissociation rate against L19-TNF^WT with L19-TNF^I97A (human) [6] of 50 fold. In the case of L19-TNF^Y119S, the stoichiometry N with L19-TNF^Y119S (human) was 3. L19-TNF^Y59F showed a stoichiometry N in the test with L19-TNF^Y59F (human) of 3.

One may read the stoichiometry N as a count of units in the complex or per binding partner. In general, Kd refers to the constant that tells how readily two partners part at equilibrium. A lower Kd goes with higher affinity.
